Target: X domain (Mac1) plus Mac2 (Mac1–2) of SARS-CoV Nsp3, purified (SARS-CoV (strain Frankfurt))
Test: ITC; […] ([…]) […] ([…]) […]; 25°C; VP-ITC; 20 mM Tris–HCl pH 8.5, 150 mM NaCl

B1: middle domain of human Paip1 (Paip1M), purified (domain or fragment)
chain: GSHMASMTGGQQMGRGSTLSEYVQDFLNHLTEQPGSFETEIEQFAETLNGCVTTDDALQELVELIYQQATSIPNFSYMGARLCNYLSHHLTISPQSGNFRQLLLQRCRTEYEVKDQAAKGDEVTRKRFHAFVLFLGELYLNLEIKGTNGQVTRADILQVGLRELLNALFSNPMDDNLICAVKLLKLTGSVLEDAWKEKGKMDMEEIIQRIENVVLDANCSRDVKQMLLKLVELRSS
Question: With B1 as the binder, how does the Kd read?
Answer: The Kd was 18.6 µM.

Question: And the dH?
Answer: The dH was -3.73 kcal/mol.

Question: And the stoichiometry N?
Answer: Its stoichiometry N is 1.14.
